Measurements taken from the supplement of paper PMC9170038.

Tested on: MS2 coat protein
Test: apparent KD of MS2 coat protein; higher = weaker reporter binding
Conditions: Eterna round: R107
How it was run: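 With or without constant ligand, designed RNA switches in 100 mM Tris-HCl pH 7.5, 80 mM KCl and 4 mM MgCl2 were titrated with SNAP-549-labelled MS2 coat protein. Concentrations went up in twofold steps from 0.7 or 1.5 nM to 3 µM. The switches had been transcribed on-chip from Illumina sequencing clusters, and apparent KD is the per-design median of normalised cluster binding-curve fits.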

[1] = input ligand: theophylline 20 uM
[2] = input ligand: tryptophan 2.4 mM
[3] = input ligand: theophylline 2 mM

Row | Sequence | apparent KD of MS2 coat protein (input ligand: arginine 13.2 mM) [nM] | apparent KD of MS2 coat protein [1] [nM] | apparent KD of MS2 coat protein [2] [nM] | apparent KD of MS2 coat protein (input ligand: none) [nM] | apparent KD of MS2 coat protein [3] [nM]
1 | CUCUUCCGGAAGGAUACCAGCUACAUGAGGAUCACCCAUGUAGGAGCGGGUUUCUAAUGUAGCCCUUGGCAGCCUUAGCCCGUCG [Querarra] | 15.9 | 36.5 | 18 |  | 
2 | CUGACGGACUCGGCCGCCACUGAUAGUAGGACAUGAGGAUCACCCAUGUAAACGAACCUCAUAGCCAGGACCGGGAGUCACGAAG [Same State Tryptophan B GF 22] | 56.4 | 189 | 49.5 | 204 | 410
3 | CUGCCAUGCAGGGAUACCAGUGCGUUCAGAACAUGAGGAUCACCCAUGUCGUCUGCCGAUCACCCUUGGCAGCUCUGCAUGGCAG [#05 Same State - Theophylline B] | 9.22 | 9.45 | 9.91 | 9.69 | 9.73
4 | CUGGCAGGAUGAUCCGCUGUCAGGGCUGAUACCAGCCACGAAAGUGGCCCUUGGCAGCAGCAAACAUGAGGAUCACCCAUGUAAA [(T)''-(M)'-(T)'-(Theo)-(Ms2)_Design2] | 54.7 | 230 | 108 |  | 
5 | CUGUACAUCUCGGCCGCCACUGACAUGAGGAUCACCCAUGUAGUGCCGAUGAGAGACUUAUCGGCCAGGACCGGGAGGUGUGCAG [SSTryp B #32] | 7.57 | 10.1 | 11.9 | 9.94 | 7.83
6 | CUUGAUAACUGAAGGAGCGAGAAACCCUACAUGAGGAUCACCCAUGUAUACACGGGAACUUCUCAGGUAGGUCGCAGUAUGUCAA [Teveor] | 90.6 | 89.3 | 71.5 | 54.4 | 165
7 | GAAAAUCCCGUACAUGAGGAUCACCCAUGUCGAGGACCGGUACGGCCGCCACUCGCACGCAUUGCAUUGGAGGGUCAGGUACGAG [Erenerrati] | 26.9 | 34.7 | 75.5 | 28.5 | 29.2
8 | GAAGACAUGAGGAUCACCCAUGUUACACACCGAGGACCGGUACGGCCGCCACUCGUAGGCCCUCGGCUCACCUGAGAUCCGCAUC [theeternabot_sameState_MS2_Trp_A_11] | 17.5 | 31.8 |  |  | 31.9
9 | GACAUAUGCUAUGCGCAGGCUACCCUCAGCCGAGGACCGGUACGGCCGCCACUCGUACUACCACAUGAGGAUCACCCAUGUUAUC [theeternabot_exclusion_MS2_Trp_A_29] | 20.1 | 28.4 |  |  | 23.9
10 | GACCUUAUCUGAAGGAGCGAGGUAAAUAGGGAUAGGAACAUGAGGAUCACCCAUGUGCGGCCUCAGGUAGGUCGCAGAUGAGAUU [Exclusion Arginine B GF28] | 42 | 103 | 113 | 93.7 | 179
11 | GACUAUAUGAUAUGUCAGAAAUCCUCGAAACGAGGACCGGUACGGCCGCCACUCGAGUGAUCAACAUGAGGAUCACCCAUGUAAA [Tryp A Ex t1] | 36.1 | 47.5 | 55.3 | 36.2 | 28.4
12 | GAGACGUCGGGAAGGAGCGCAUCCAAACCACACAUGAGGAUCACCCAUGUAUAAAUAUGCAUGCAGGUAGGUCGCCCGGUGUCCC [Diaxeon] | 59.7 | 125 | 75.1 | 87.2 | 97.8
13 | GAGCUGAUGUAGGCCGGAUAUCCGGGAGAUACCAGUACAGAAAUGUACCCUUGGCAGCUCUUUCCUACAUGAGGAUCACCCAUGU [Ex Theophylline A 28] | 17 | 21.7 | 17.8 |  | 
14 | GAUAUGUAUCGAAGGAGCGGCCCUUGAUCCUCAUGAGACAUGAGGAUCACCCAUGUCUCGGGCCAGGUAGGUCGCGAUAUAUAUC [Astros-omei-mod3] | 24.9 | 24.3 | 21.8 | 18.4 | 24.7
15 | GAUCGAUCAUAGUACGAUCGUUUUGUGGAAGGAGCGCAGAGGACUGCAGGUAGGUCGCCACAUGAGGAUCACCCAUGUCAGGAUU [XARG-A 24] | 99.9 | 62.5 | 32.8 | 61.5 | 122
16 | GAUGAACUAUUUGAUACCAGACUACAUGAGGAUCACCCAUGUGAGUUUCCUCCUCUGCCAGUCCCUUGGCAGCAAAUAGUUUAUC [XTheo B #7] | 57.6 | 96.9 | 42.3 |  | 
17 | GAUGAACUAUUUGAUACCAGACUACAUGAGGAUCACCCAUGUGAGUUUCGUCCUCUGCCAGUCCCUUGGCAGCAAAUAGUUUAUC [XTheo B #8] | 15.8 | 36.7 | 14.3 |  | 
18 | GAUGAACUAUUUGAUACCAGACUACAUGAGGAUCACCCAUGUGUGUUUAUACUUCAGUCAGUCCCUUGGCAGCAAAUAGUUUAUC [XTheo B #3] | 94.8 | 183 | 158 |  | 
